Experimental data published in article PMC10816394, “Radiosynthesis and Bioevaluation of ^99mTc-Labeled Isocyanide Ubiquicidin 29-41 Derivatives as Potential Agents for Bacterial Infection Imaging” (International Journal of Molecular Sciences, 2024).
No end group written: not given here.

How the values were obtained:
[1] = system: S. aureus-infected mice; set-up: species or system female Kunming mice; details: mouse, in vivo
Protocol: Bacterial infection mouse models were constructed as follows: S. aureus (ATCC 25923) was cultured in a liquid medium at 37 °C for approximately 24 h, washed with PBS (pH 7.4) and diluted to obtain a suspension of 1 × 10^8 CFU/mL. […] The mice were sacrificed with isoflurane anesthesia at 120 min postinjection. […] To evaluate the metabolic properties of [^99mTc]Tc-CN5UBI 29-41, biodistribution studies were carried out in mice infected with S. aureus at 30, 120 and 240 min.

[2] = type: physicochemical; details: pH 7.4
Protocol: The lipophilicities of the ^99mTc-labeled complexes were evaluated by the distribution coefficient. The method for determining the distribution coefficient was as follows: 0.1 mL of the radiolabeled complex (3.7 MBq) was mixed with 0.9 mL of phosphate buffer (0.025 mol/L, pH 7.4) and 1 mL of n-octanol in a 5 mL centrifuge tube. The mixture was shaken on a vortex mixer at room temperature for 3 min and centrifuged at 5000 r/min for 5 min. Aliquots of 0.1 mL of both n-octanol and PBS were collected, and the radioactivity was determined with a γ-counter. The distribution coefficient was calculated as follows: Log D = lg[(counts per minute in n-octanol/counts per minute in PBS)]. Each group of measurements was carried out five times in parallel. The final results are expressed as the log D ± SD.

[3] = system: turpentine-oil-inflamed mice; assay: Biodistribution in mice with turpentine-induced abscesses (sterile inflammation); details: tail vein injection, 120 min p.i., mean ± SD, n = 5
Protocol: The sterile inflammation mouse model was constructed as follows: turpentine oil (0.1 mL) was injected into the left thigh muscle of female Kunming mice (18–22 g). […] Each mouse was injected with 0.1 mL of [^99mTc]Tc-CN5UBI 29-41 (3.7 MBq/mL) via the tail vein. The mice were sacrificed under anesthesia with 1.5% isoflurane at 120 min postinjection. The organs of interest (the inflamed muscle in the left thigh, normal muscle in the right thigh, blood, heart, liver, lung, kidney, spleen, stomach, bone, small intestine and large intestine) were collected, weighed and measured by a γ-counter. The results are expressed as the percentage of the injected dose per gram of tissue ± standard deviation (%ID/g ± SD). After the mice were sacrificed, the tissues containing the thyroid around the trachea in the neck were collected and measured. The results are expressed as the percentage of the injected dose ± standard deviation (%ID ± SD).

[4] = system: S. aureus-infected mice; assay: SPECT imaging in bacterial infection mice; type: in vivo; details: S. aureus in left forelimb muscle, 30~37 MBq tail vein, imaging at 30, 120 and 240 min p.i., n = 2
Protocol: The bacterial-infected mouse model was generated as follows: 100 μL of bacterial suspension containing approximately 1 × 10^8 CFU/mL (for S. aureus) was injected into the left forelimb muscle of the same mice. […] One hundred microliters of [^99mTc]Tc-CN5UBI 29-41 (30~37 MBq) was injected intravenously into each bacterially infected mouse via the tail vein (n = 2). […] The SPECT/CT images were reconstructed with HiSPECT 3.2.0 software (Bioscan, Washington, DC, USA) and processed with VivoQuant 2.5 software (Invicro, Needham, MA, USA).

Row | Substance | Abscess/Blood ratio [1] | Abscess/Muscle ratio (target-to-nontarget ratio) [1] | Log D ± SD, [^99mTc][Tc(Ⅰ)]^+ Core [2] | Log D ± SD, [^99mTc][Tc(Ⅴ)N]^2+ Core [2] | other results
1 | [^99mTc]Tc(CO)3-CN5UBI 29-41: ^99mTc complex of ligand CN5UBI 29-41 with the [^99mTc][Tc(I)(CO)3(H2O)3]^+ core (TGRAKRRMQYNRR; also: CN5 chelator, position not given here, 99mTc(CO)3 complex; UniProt P62861 103-115, looked up, fragment) | 0.67 ± 0.15 | 2.49 ± 0.65 | – | – | –
2 | [^99mTc]Tc(CO)3-CN6UBI 29-41: ^99mTc complex of ligand CN6UBI 29-41 with the [^99mTc][Tc(I)(CO)3(H2O)3]^+ core (TGRAKRRMQYNRR; also: CN6 chelator, position not given here, 99mTc(CO)3 complex; UniProt P62861 103-115, looked up, fragment) | 0.73 ± 0.19 | 2.48 ± 0.45 | – | – | –
3 | [^99mTc]Tc(CO)3-CN7UBI 29-41: ^99mTc complex of ligand CN7UBI 29-41 with the [^99mTc][Tc(I)(CO)3(H2O)3]^+ core (TGRAKRRMQYNRR; also: CN7 chelator, position not given here, 99mTc(CO)3 complex; UniProt P62861 103-115, looked up, fragment) | 0.69 ± 0.08 | 2.43 ± 0.49 | – | – | –
4 | [^99mTc]Tc(CO)3-CN8UBI 29-41: ^99mTc complex of ligand CN8UBI 29-41 with the [^99mTc][Tc(I)(CO)3(H2O)3]^+ core (TGRAKRRMQYNRR; also: CN8 chelator, position not given here, 99mTc(CO)3 complex; UniProt P62861 103-115, looked up, fragment) | 0.64 ± 0.11 | 2.42 ± 0.37 | – | – | –
5 | [^99mTc]Tc(CO)3-CN9UBI 29-41: ^99mTc complex of ligand CN9UBI 29-41 with the [^99mTc][Tc(I)(CO)3(H2O)3]^+ core (TGRAKRRMQYNRR; also: CN9 chelator, position not given here, 99mTc(CO)3 complex; UniProt P62861 103-115, looked up, fragment) | 0.75 ± 0.12 | 2.60 ± 0.68 | – | – | –
6 | [^99mTc]Tc-CN5UBI 29-41: ^99mTc complex of ligand CN5UBI 29-41 with the [^99mTc]Tc(I)^+ core (TGRAKRRMQYNRR; also: CN5 chelator, position not given here, 99mTc(I) complex; UniProt P62861 103-115, looked up, fragment) | – | 4.15 ± 0.49 | −2.66 ± 0.02 | – | Abscess uptake [3]: 0.73 ± 0.05 %ID/g; Abscess/Blood ratio [3]: 0.59 ± 0.06; Abscess/Muscle ratio (target-to-nontarget ratio) [3]: 2.52 ± 0.22; Blood uptake [3]: 1.28 ± 0.12 %ID/g; Bone uptake [3]: 0.82 ± 0.19 %ID/g; Gallbladder uptake [3]: 0.15 ± 0.04 %ID; Heart uptake [3]: 0.61 ± 0.03 %ID/g; Kidney uptake [3]: 13.05 ± 1.24 %ID/g; Large Intestines uptake [3]: 0.62 ± 0.18 %ID/g; SPECT image finding at infection site [4]: accumulated at the site of bacterial infection
7 | [^99mTc]Tc-CN6UBI 29-41: ^99mTc complex of ligand CN6UBI 29-41 with the [^99mTc]Tc(I)^+ core (TGRAKRRMQYNRR; also: CN6 chelator, position not given here, 99mTc(I) complex; UniProt P62861 103-115, looked up, fragment) | 0.75 ± 0.10 | 3.48 ± 0.70 | −2.62 ± 0.03 | – | –
8 | [^99mTc]Tc-CN7UBI 29-41: ^99mTc complex of ligand CN7UBI 29-41 with the [^99mTc]Tc(I)^+ core (TGRAKRRMQYNRR; also: CN7 chelator, position not given here, 99mTc(I) complex; UniProt P62861 103-115, looked up, fragment) | 0.56 ± 0.09 | 2.52 ± 0.56 | −2.57 ± 0.03 | – | –
9 | [^99mTc]Tc-CN8UBI 29-41: ^99mTc complex of ligand CN8UBI 29-41 with the [^99mTc]Tc(I)^+ core (TGRAKRRMQYNRR; also: CN8 chelator, position not given here, 99mTc complex with [99mTc]Tc(I)+ core; UniProt P62861 103-115, looked up, fragment) | 0.66 ± 0.16 | 2.64 ± 0.65 | −2.54 ± 0.01 | – | –
10 | [^99mTc]Tc-CN9UBI 29-41: ^99mTc complex of ligand CN9UBI 29-41 with the [^99mTc]Tc(I)^+ core (TGRAKRRMQYNRR; also: CN9 chelator, position not given here, 99mTc complex with [99mTc]Tc(I)+ core; UniProt P62861 103-115, looked up, fragment) | 0.69 ± 0.04 | 2.62 ± 0.42 | −2.52 ± 0.01 | – | –
11 | [^99mTc]TcN-CN5UBI 29-41: ^99mTc complex of ligand CN5UBI 29-41 with the [^99mTc][Tc(V)N]^2+ core (TGRAKRRMQYNRR; also: CN5 chelator, position not given here, 99mTc complex with [99mTc][Tc(V)N]2+ core; UniProt P62861 103-115, looked up, fragment) | 0.69 ± 0.22 | 2.10 ± 0.80 | – | −2.71 ± 0.03 | –
12 | [^99mTc]TcN-CN6UBI 29-41: ^99mTc complex of ligand CN6UBI 29-41 with the [^99mTc][Tc(V)N]^2+ core (TGRAKRRMQYNRR; also: CN6 chelator, position not given here, 99mTc complex with [99mTc][Tc(V)N]2+ core; UniProt P62861 103-115, looked up, fragment) | 0.70 ± 0.15 | 3.32 ± 0.99 | – | −2.65 ± 0.03 | –
13 | [^99mTc]TcN-CN7UBI 29-41: ^99mTc complex of ligand CN7UBI 29-41 with the [^99mTc][Tc(V)N]^2+ core (TGRAKRRMQYNRR; also: CN7 chelator, position not given here, 99mTc complex with [99mTc][Tc(V)N]2+ core; UniProt P62861 103-115, looked up, fragment) | 0.58 ± 0.12 | 2.47 ± 0.47 | – | −2.58 ± 0.04 | –
14 | [^99mTc]TcN-CN8UBI 29-41: ^99mTc complex of ligand CN8UBI 29-41 with the [^99mTc][Tc(V)N]^2+ core (TGRAKRRMQYNRR; also: CN8 chelator, position not given here, 99mTc complex with [99mTc][Tc(V)N]2+ core; UniProt P62861 103-115, looked up, fragment) | 0.72 ± 0.13 | 2.81 ± 0.55 | – | −2.55 ± 0.03 | –
15 | [^99mTc]TcN-CN9UBI 29-41: ^99mTc complex of ligand CN9UBI 29-41 with the [^99mTc][Tc(V)N]^2+ core (TGRAKRRMQYNRR; also: CN9 chelator, position not given here, 99mTc complex with [99mTc][Tc(V)N]2+ core; UniProt P62861 103-115, looked up, fragment) | 0.70 ± 0.29 | 2.79 ± 0.82 | – | −2.41 ± 0.03 | –
